Here are results for six molecules from US20260049138A1 (Chugai, published 2026).

This test addresses T1, CD3ε homodimer protein (human, UniProt P07766 23-126, limits assumed).
T1 construct: also called CD3 (CD3ε)
Briefly: SPR Biacore T200, CD3ε homodimer on chip.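 Note: Light-chain single-residue variant antibodies injected over amine-coupled CD3ε homodimer on a CM4 chip at 25 °C, bound amount divided by that of the GLS3000-containing antibody.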

T1 sequence (P07766 23-126 limits assumed): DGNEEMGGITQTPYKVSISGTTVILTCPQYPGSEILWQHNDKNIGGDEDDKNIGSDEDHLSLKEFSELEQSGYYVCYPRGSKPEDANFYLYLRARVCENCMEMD

B1: GLS3000 H27dR one-arm antibody (antibody, human IgG1, kappa, L234A L235A, N297A, name in Kabat numbering)
heavy: QVQLVESGGGVVQPGRSLRLSCAASGFTFSNAWMHWVRQAPGKGLEWVAQIKAKSNNYATYYAESVKGRFTISRDDSKNSLYLQMNSLKTEDTAVYYCRYVHYGAYYGVDAWGQGTTVTVSSASTKGPSVFPLAPSSKSTSGGTAALGCLVKDYFPEPVTVSWNSGALTSGVHTFPAVLQSSGLYSLSSVVTVPSSSLGTQTYICNVNHKPSNTKVDKKVEPKSCDKTHTCPPCPAPEAAGGPSVFLFPPKPKDTLMISRTPEVTCVVVDVSHEDPEVKFNWYVDGVEVHNAKTKPREEQYASTYRVVSVLTVLHQDWLNGKEYKCKVSNKALPAPIEKTISKAKGQPREPQVYTLPPSRCELTKNQVSLSCAVKGFYPSDIAVEWESNGQPENNYKTTPPVLDSDGSFFLVSKLTVDKSRWQQGNVFSCSVMHEALHNHYTQKSLSLSPDYKDDDDK
chain: EPKSSDKTHTCPPCPAPELLGGPSVFLFPPKPKDTLMISRTPEVTCVVVDVSHEDPEVKFNWYVDGVEVHNAKTKPREEQYNSTYRVVSVLTVLHQDWLNGKEYKCKVSNKALPAPIEKTISKAKGQPREPQVCTLPPSRDELTKNQVSLWCLVKGFYPSDIAVEWESNGQPENNYKTTPPVLDSDGSFFLYSKLTVDKSRWQQGNVFSCSVMHEALHNRYTQKSLSLSP
light: DIVMTQSPLSLPVTPGEPASISCRSSQSLVRSNRNTYLHWYQQKPGQAPRLLIYKVSNRFSGVPDRFSGSGSGTDFTLKISRVEAEDVGVYYCGQGTQVPYTFGQGTKLEIKRTVAAPSVFIFPPSDEQLKSGTASVVCLLNNFYPREAKVQWKVDNALQSGNSQESVTEQDSKDSTYSLSSTLTLSKADYEKHKVYACEVTHQGLSSPVTKSFNRGEC
B1: the “ratio of amount bound vs unaltered GLS3000” value (“ratio of amount bound” below) is 0.31.

B2: GLS3000 H27dT one-arm antibody (antibody, human IgG1, kappa, L234A L235A, N297A, name in Kabat numbering)
heavy: QVQLVESGGGVVQPGRSLRLSCAASGFTFSNAWMHWVRQAPGKGLEWVAQIKAKSNNYATYYAESVKGRFTISRDDSKNSLYLQMNSLKTEDTAVYYCRYVHYGAYYGVDAWGQGTTVTVSSASTKGPSVFPLAPSSKSTSGGTAALGCLVKDYFPEPVTVSWNSGALTSGVHTFPAVLQSSGLYSLSSVVTVPSSSLGTQTYICNVNHKPSNTKVDKKVEPKSCDKTHTCPPCPAPEAAGGPSVFLFPPKPKDTLMISRTPEVTCVVVDVSHEDPEVKFNWYVDGVEVHNAKTKPREEQYASTYRVVSVLTVLHQDWLNGKEYKCKVSNKALPAPIEKTISKAKGQPREPQVYTLPPSRCELTKNQVSLSCAVKGFYPSDIAVEWESNGQPENNYKTTPPVLDSDGSFFLVSKLTVDKSRWQQGNVFSCSVMHEALHNHYTQKSLSLSPDYKDDDDK
chain: EPKSSDKTHTCPPCPAPELLGGPSVFLFPPKPKDTLMISRTPEVTCVVVDVSHEDPEVKFNWYVDGVEVHNAKTKPREEQYNSTYRVVSVLTVLHQDWLNGKEYKCKVSNKALPAPIEKTISKAKGQPREPQVCTLPPSRDELTKNQVSLWCLVKGFYPSDIAVEWESNGQPENNYKTTPPVLDSDGSFFLYSKLTVDKSRWQQGNVFSCSVMHEALHNRYTQKSLSLSP
light: DIVMTQSPLSLPVTPGEPASISCRSSQSLVTSNRNTYLHWYQQKPGQAPRLLIYKVSNRFSGVPDRFSGSGSGTDFTLKISRVEAEDVGVYYCGQGTQVPYTFGQGTKLEIKRTVAAPSVFIFPPSDEQLKSGTASVVCLLNNFYPREAKVQWKVDNALQSGNSQESVTEQDSKDSTYSLSSTLTLSKADYEKHKVYACEVTHQGLSSPVTKSFNRGEC
As for B2, the “ratio of amount bound” value is 0.29.

B3: GLS3000 H27dY one-arm antibody (antibody, human IgG1, kappa, L234A L235A, N297A, name in Kabat numbering)
heavy: QVQLVESGGGVVQPGRSLRLSCAASGFTFSNAWMHWVRQAPGKGLEWVAQIKAKSNNYATYYAESVKGRFTISRDDSKNSLYLQMNSLKTEDTAVYYCRYVHYGAYYGVDAWGQGTTVTVSSASTKGPSVFPLAPSSKSTSGGTAALGCLVKDYFPEPVTVSWNSGALTSGVHTFPAVLQSSGLYSLSSVVTVPSSSLGTQTYICNVNHKPSNTKVDKKVEPKSCDKTHTCPPCPAPEAAGGPSVFLFPPKPKDTLMISRTPEVTCVVVDVSHEDPEVKFNWYVDGVEVHNAKTKPREEQYASTYRVVSVLTVLHQDWLNGKEYKCKVSNKALPAPIEKTISKAKGQPREPQVYTLPPSRCELTKNQVSLSCAVKGFYPSDIAVEWESNGQPENNYKTTPPVLDSDGSFFLVSKLTVDKSRWQQGNVFSCSVMHEALHNHYTQKSLSLSPDYKDDDDK
chain: EPKSSDKTHTCPPCPAPELLGGPSVFLFPPKPKDTLMISRTPEVTCVVVDVSHEDPEVKFNWYVDGVEVHNAKTKPREEQYNSTYRVVSVLTVLHQDWLNGKEYKCKVSNKALPAPIEKTISKAKGQPREPQVCTLPPSRDELTKNQVSLWCLVKGFYPSDIAVEWESNGQPENNYKTTPPVLDSDGSFFLYSKLTVDKSRWQQGNVFSCSVMHEALHNRYTQKSLSLSP
light: DIVMTQSPLSLPVTPGEPASISCRSSQSLVYSNRNTYLHWYQQKPGQAPRLLIYKVSNRFSGVPDRFSGSGSGTDFTLKISRVEAEDVGVYYCGQGTQVPYTFGQGTKLEIKRTVAAPSVFIFPPSDEQLKSGTASVVCLLNNFYPREAKVQWKVDNALQSGNSQESVTEQDSKDSTYSLSSTLTLSKADYEKHKVYACEVTHQGLSSPVTKSFNRGEC
As to B3, the “ratio of amount bound” value stood at 0.64.

B4: GLS3000 H27dW one-arm antibody (antibody, human IgG1, kappa, L234A L235A, N297A, name in Kabat numbering)
heavy: QVQLVESGGGVVQPGRSLRLSCAASGFTFSNAWMHWVRQAPGKGLEWVAQIKAKSNNYATYYAESVKGRFTISRDDSKNSLYLQMNSLKTEDTAVYYCRYVHYGAYYGVDAWGQGTTVTVSSASTKGPSVFPLAPSSKSTSGGTAALGCLVKDYFPEPVTVSWNSGALTSGVHTFPAVLQSSGLYSLSSVVTVPSSSLGTQTYICNVNHKPSNTKVDKKVEPKSCDKTHTCPPCPAPEAAGGPSVFLFPPKPKDTLMISRTPEVTCVVVDVSHEDPEVKFNWYVDGVEVHNAKTKPREEQYASTYRVVSVLTVLHQDWLNGKEYKCKVSNKALPAPIEKTISKAKGQPREPQVYTLPPSRCELTKNQVSLSCAVKGFYPSDIAVEWESNGQPENNYKTTPPVLDSDGSFFLVSKLTVDKSRWQQGNVFSCSVMHEALHNHYTQKSLSLSPDYKDDDDK
chain: EPKSSDKTHTCPPCPAPELLGGPSVFLFPPKPKDTLMISRTPEVTCVVVDVSHEDPEVKFNWYVDGVEVHNAKTKPREEQYNSTYRVVSVLTVLHQDWLNGKEYKCKVSNKALPAPIEKTISKAKGQPREPQVCTLPPSRDELTKNQVSLWCLVKGFYPSDIAVEWESNGQPENNYKTTPPVLDSDGSFFLYSKLTVDKSRWQQGNVFSCSVMHEALHNRYTQKSLSLSP
light: DIVMTQSPLSLPVTPGEPASISCRSSQSLVWSNRNTYLHWYQQKPGQAPRLLIYKVSNRFSGVPDRFSGSGSGTDFTLKISRVEAEDVGVYYCGQGTQVPYTFGQGTKLEIKRTVAAPSVFIFPPSDEQLKSGTASVVCLLNNFYPREAKVQWKVDNALQSGNSQESVTEQDSKDSTYSLSSTLTLSKADYEKHKVYACEVTHQGLSSPVTKSFNRGEC
Consider B4, for which the “ratio of amount bound” value amounted to 0.39.

B5: GLS3000 H27dV one-arm antibody (antibody, human IgG1, kappa, L234A L235A, N297A, name in Kabat numbering)
heavy: QVQLVESGGGVVQPGRSLRLSCAASGFTFSNAWMHWVRQAPGKGLEWVAQIKAKSNNYATYYAESVKGRFTISRDDSKNSLYLQMNSLKTEDTAVYYCRYVHYGAYYGVDAWGQGTTVTVSSASTKGPSVFPLAPSSKSTSGGTAALGCLVKDYFPEPVTVSWNSGALTSGVHTFPAVLQSSGLYSLSSVVTVPSSSLGTQTYICNVNHKPSNTKVDKKVEPKSCDKTHTCPPCPAPEAAGGPSVFLFPPKPKDTLMISRTPEVTCVVVDVSHEDPEVKFNWYVDGVEVHNAKTKPREEQYASTYRVVSVLTVLHQDWLNGKEYKCKVSNKALPAPIEKTISKAKGQPREPQVYTLPPSRCELTKNQVSLSCAVKGFYPSDIAVEWESNGQPENNYKTTPPVLDSDGSFFLVSKLTVDKSRWQQGNVFSCSVMHEALHNHYTQKSLSLSPDYKDDDDK
chain: EPKSSDKTHTCPPCPAPELLGGPSVFLFPPKPKDTLMISRTPEVTCVVVDVSHEDPEVKFNWYVDGVEVHNAKTKPREEQYNSTYRVVSVLTVLHQDWLNGKEYKCKVSNKALPAPIEKTISKAKGQPREPQVCTLPPSRDELTKNQVSLWCLVKGFYPSDIAVEWESNGQPENNYKTTPPVLDSDGSFFLYSKLTVDKSRWQQGNVFSCSVMHEALHNRYTQKSLSLSP
light: DIVMTQSPLSLPVTPGEPASISCRSSQSLVVSNRNTYLHWYQQKPGQAPRLLIYKVSNRFSGVPDRFSGSGSGTDFTLKISRVEAEDVGVYYCGQGTQVPYTFGQGTKLEIKRTVAAPSVFIFPPSDEQLKSGTASVVCLLNNFYPREAKVQWKVDNALQSGNSQESVTEQDSKDSTYSLSSTLTLSKADYEKHKVYACEVTHQGLSSPVTKSFNRGEC
With B5, the “ratio of amount bound” value came out at 0.3.

B6: GLS3000 H27dS one-arm antibody (antibody, human IgG1, kappa, L234A L235A, N297A, name in Kabat numbering)
heavy: QVQLVESGGGVVQPGRSLRLSCAASGFTFSNAWMHWVRQAPGKGLEWVAQIKAKSNNYATYYAESVKGRFTISRDDSKNSLYLQMNSLKTEDTAVYYCRYVHYGAYYGVDAWGQGTTVTVSSASTKGPSVFPLAPSSKSTSGGTAALGCLVKDYFPEPVTVSWNSGALTSGVHTFPAVLQSSGLYSLSSVVTVPSSSLGTQTYICNVNHKPSNTKVDKKVEPKSCDKTHTCPPCPAPEAAGGPSVFLFPPKPKDTLMISRTPEVTCVVVDVSHEDPEVKFNWYVDGVEVHNAKTKPREEQYASTYRVVSVLTVLHQDWLNGKEYKCKVSNKALPAPIEKTISKAKGQPREPQVYTLPPSRCELTKNQVSLSCAVKGFYPSDIAVEWESNGQPENNYKTTPPVLDSDGSFFLVSKLTVDKSRWQQGNVFSCSVMHEALHNHYTQKSLSLSPDYKDDDDK
chain: EPKSSDKTHTCPPCPAPELLGGPSVFLFPPKPKDTLMISRTPEVTCVVVDVSHEDPEVKFNWYVDGVEVHNAKTKPREEQYNSTYRVVSVLTVLHQDWLNGKEYKCKVSNKALPAPIEKTISKAKGQPREPQVCTLPPSRDELTKNQVSLWCLVKGFYPSDIAVEWESNGQPENNYKTTPPVLDSDGSFFLYSKLTVDKSRWQQGNVFSCSVMHEALHNRYTQKSLSLSP
light: DIVMTQSPLSLPVTPGEPASISCRSSQSLVSSNRNTYLHWYQQKPGQAPRLLIYKVSNRFSGVPDRFSGSGSGTDFTLKISRVEAEDVGVYYCGQGTQVPYTFGQGTKLEIKRTVAAPSVFIFPPSDEQLKSGTASVVCLLNNFYPREAKVQWKVDNALQSGNSQESVTEQDSKDSTYSLSSTLTLSKADYEKHKVYACEVTHQGLSSPVTKSFNRGEC
In the case of B6, the “ratio of amount bound” value came to 0.32.
